From patent publication US20230399394A1 (SUNSHINE GUOJIAN PHARMACEUTICAL SHANGHAI, published 2023)
Numbering of substitutions follows the chain as printed.

How the values were obtained:
Pep13 = molecular target: T1, Pep13 (human, N-terminal biotin); test: ELISA, biotinylated peptide on streptavidin plate
T1 construct: Synthetic 20-mer of human IL-33
T1 peptide: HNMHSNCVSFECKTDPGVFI
Method: (§1) To determine the binding activity of antibody to each polypeptide fragment, the ELISA plate was pre-coated by biotin-avidin (SA) which was diluted in coating solution (50 mM carbonate coating buffer, pH 9.6) to 2 μg/ml at 4° C. overnight. The plate was washed with PBST for 3 times, and then blocked with 2% BSA prepared in PBS at room temperature for 2 h with 200 μL/well. The plate was washed once with PBST, and 864F3 and 874F7 with final concentrations of 10 μg/mL were added at 100 μL/well, respectively, and the plate was incubated at room temperature for 1 h. The plate was washed with PBST for 3 times, and the goat anti-mouse IgG labeled by HRP was added and placed at 37° C. for 30 min. After washing the plate with PBST for 3 times, the plate was patted on the absorbent paper to remove residual droplets as far as possible. 100 μl TMB developing solution was added to each well, and the plate was placed at room temperature (20±5° C.) for 5 minutes away from light; 50 μl 2M H₂SO₄ terminating solution was added to each well to terminate the substrate reaction. OD values were read at 450 nm on the microplate reader to analyze the binding ability of the antibody to each polypeptide fragment. The experimental results are shown in […]

Pep5 = molecular target: T2, Pep5 (human, N-terminal biotin); test: ELISA, biotinylated peptide on streptavidin plate
T2 construct: Synthetic 20-mer of human IL-33
T2 peptide: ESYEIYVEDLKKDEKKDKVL
Method: as §1

Pep10 = molecular target: T3, Pep10 (human, N-terminal biotin); test: ELISA, biotinylated peptide on streptavidin plate
T3 construct: Synthetic 20-mer of human IL-33
T3 peptide: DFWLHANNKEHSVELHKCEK
Method: as §1

Pep3 = molecular target: T4, Pep3 (human, N-terminal biotin); test: ELISA, biotinylated peptide on streptavidin plate
T4 construct: Synthetic 20-mer of human IL-33
T4 peptide: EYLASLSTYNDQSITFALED
Method: as §1

Pep15 = molecular target: T5, Pep15 (human, N-terminal biotin); test: ELISA, biotinylated peptide on streptavidin plate
T5 construct: Synthetic 20-mer of human IL-33
T5 peptide: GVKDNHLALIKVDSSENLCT
Method: as §1

Pep4 = molecular target: T6, Pep4 (human, N-terminal biotin); test: ELISA, biotinylated peptide on streptavidin plate
T6 construct: Synthetic 20-mer of human IL-33
T6 peptide: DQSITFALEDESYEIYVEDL
Method: as §1

Pep14 = molecular target: T7, Pep14 (human, N-terminal biotin); test: ELISA, biotinylated peptide on streptavidin plate
T7 construct: Synthetic 20-mer of human IL-33
T7 peptide: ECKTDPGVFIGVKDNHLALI
Method: as §1

Pep11 = molecular target: T8, Pep11 (human, N-terminal biotin); test: ELISA, biotinylated peptide on streptavidin plate
T8 construct: Synthetic 20-mer of human IL-33
T8 peptide: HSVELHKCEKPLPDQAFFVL
Method: as §1

Pep12 = molecular target: T9, Pep12 (human, N-terminal biotin); test: ELISA, biotinylated peptide on streptavidin plate
T9 construct: Synthetic 20-mer of human IL-33
T9 peptide: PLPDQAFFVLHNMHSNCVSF
Method: as §1

Pep16 = molecular target: T10, Pep16 (human, N-terminal biotin); test: ELISA, biotinylated peptide on streptavidin plate
T10 construct: Synthetic 20-mer of human IL-33
T10 peptide: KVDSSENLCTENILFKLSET
Method: as §1

Pep9 = molecular target: T11, Pep9 (human, N-terminal biotin); test: ELISA, biotinylated peptide on streptavidin plate
T11 construct: Synthetic 20-mer of human IL-33
T11 peptide: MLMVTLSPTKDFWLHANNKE
Method: as §1

Pep7 = molecular target: T12, Pep7 (human, N-terminal biotin); test: ELISA, biotinylated peptide on streptavidin plate
T12 construct: Synthetic 20-mer of human IL-33
T12 peptide: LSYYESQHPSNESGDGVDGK
Method: as §1

Pep1 = molecular target: T13, Pep1 (human, N-terminal biotin); test: ELISA, biotinylated peptide on streptavidin plate
T13 construct: Synthetic 20-mer of human IL-33
T13 peptide: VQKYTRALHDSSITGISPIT
Method: as §1

Pep2 = molecular target: T14, Pep2 (human, N-terminal biotin); test: ELISA, biotinylated peptide on streptavidin plate
T14 construct: Synthetic 20-mer of human IL-33
T14 peptide: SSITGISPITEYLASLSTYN
Method: as §1

[1] = molecular target: T15, IL-33 mutant protein K70A (human, UniProt O95760 112-270); test: ELISA as Example 9; row K70A
T15 construct: Prokaryotic expression
T15 chain: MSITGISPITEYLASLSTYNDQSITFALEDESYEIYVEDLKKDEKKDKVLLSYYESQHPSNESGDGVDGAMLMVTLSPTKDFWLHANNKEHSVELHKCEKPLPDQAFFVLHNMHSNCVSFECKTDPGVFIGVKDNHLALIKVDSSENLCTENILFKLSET
Method: (§2) SA protein was diluted to 2 μg/mL to coat ELISA plate at 100 μL/well overnight at 4° C. The plate was washed with PBST (PBS containing 0.05% Tween20) for 3 times, and blocked with 2% BSA prepared in PBS at 200 μL/well, at room temperature for 2 h. After the plate was washed twice with PBST, IL-33-his-biotin protein was diluted to 1 μg/mL with 1% BSA prepared in PBST, and was added to ELISA plate at 100 μL/well. The plate was incubated at room temperature for 1 h, and each monoclonal antibody was diluted with 1% BSA prepared in PBST in a 3-fold gradient. The highest concentration of antibody was 10 μg/mL, and the antibody was diluted for 12 gradients. Each diluted monoclonal antibody was added to ELISA wells with 100 μL/well, and the plate was incubated at room temperature for 1 h. Each sample was added to duplicate wells in parallel. The plate was washed with PBST for 3 times, and HRP-anti human IgG Fc secondary antibody prepared with PBST was diluted at an appropriate ratio, and was added to ELISA wells at 100 μL/well. […] Each reaction solution was shaken uniformly and OD450 nm was read on a microplate reader. The data was analyzed and EC₅₀ was calculated.
(§3) Subsequently, according to the experimental method of Example 9, the affinity of the above mutant proteins to 874F7-Hu1 was determined, and IL-33 proteins (WT-1, WT-2, WT-3, and WT-4) without any mutation were set as controls.

[2] = molecular target: T16, IL-33 mutant protein E44A (human, UniProt O95760 112-270); test: ELISA as Example 9; row E44A
T16 construct: Prokaryotic expression
T16 chain: T15 chain with E44A, A70K
Method: as §2, §3

[3] = molecular target: T17, IL-33 protein without any mutation (WT) (human, UniProt O95760 112-270); test: ELISA as Example 9; row WT-3, the reference itself
T17 construct: Control of the alanine scan (four runs WT-1 to WT-4); also called WT-1; WT-2
T17 sequence: T15 chain with A70K
Method: as §2, §3

B1: 874F7 (antibody, V domains shown)
VH: QVQLKESGPGLVAPSHSLSITCNVSGFSLSKYGVHWIRQIPGRGLDWLGVLRAGGSTGYNSALMSRLSISKDSSKSQVFLKMNDLRTDDTAVYFCVRDHYYYSSYGGFVYWGQGTLVTVSA
VL: DIQMTQSPASQSASLGESVTITCLASQTIGAWLAWYRQQPGKSPQLLIYAATRLADGVPSRFSGSGSGTEFSFKINNLQAEDFVSYYCQQLDSSPYTFGGGTRLEM
notes: Murine hybridoma antibody purified on Protein G; also called murine antibody 874F7
B1: no binding (tested: 10 µg/mL) (Pep13); no binding (tested: 10 µg/mL) (Pep5); no binding (tested: 10 µg/mL) (Pep10). B1: no binding (tested: 10 µg/mL) (Pep3); no binding (tested: 10 µg/mL) (Pep15); no binding (tested: 10 µg/mL) (Pep4). B1: no binding (tested: 10 µg/mL) (Pep14); no binding (tested: 10 µg/mL) (Pep11); no binding (tested: 10 µg/mL) (Pep12). B1: no binding (tested: 10 µg/mL) (Pep16); no binding (tested: 10 µg/mL) (Pep9); no binding (tested: 10 µg/mL) (Pep7). B1: no binding (tested: 10 µg/mL) (Pep1); no binding (tested: 10 µg/mL) (Pep2).

B2: 874F7-Hu1 (antibody, human IgG4 S228P, kappa)
heavy: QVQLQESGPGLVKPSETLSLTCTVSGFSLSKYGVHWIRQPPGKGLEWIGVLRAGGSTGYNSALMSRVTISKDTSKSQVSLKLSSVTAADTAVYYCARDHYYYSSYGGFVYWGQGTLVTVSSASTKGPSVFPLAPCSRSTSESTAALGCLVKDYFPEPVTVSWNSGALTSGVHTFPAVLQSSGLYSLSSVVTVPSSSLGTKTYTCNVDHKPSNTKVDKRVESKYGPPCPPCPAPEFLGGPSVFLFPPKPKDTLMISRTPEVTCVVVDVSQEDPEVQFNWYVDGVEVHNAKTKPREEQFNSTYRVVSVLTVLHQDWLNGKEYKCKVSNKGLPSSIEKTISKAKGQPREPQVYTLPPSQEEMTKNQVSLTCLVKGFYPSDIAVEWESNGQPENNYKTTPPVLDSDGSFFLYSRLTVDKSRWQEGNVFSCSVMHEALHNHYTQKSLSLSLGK
light: DIQMTQSPSSVSASVGDRVTITCLASQTIGAWLAWYQQKPGKSPKLLIYAATRLADGVPSRFSGSGSGTDFTLTISSLQPEDFATYYCQQLDSSPYTFGQGTKVEIKRTVAAPSVFIFPPSDEQLKSGTASVVCLLNNFYPREAKVQWKVDNALQSGNSQESVTEQDSKDSTYSLSSTLTLSKADYEKHKVYACEVTHQGLSSPVTKSFNRGEC
notes: also called 874F7-Hul; humanized antibody 874F7-Hu1
With B2 the EC50 [1] was 0.11 nM, the EC50 [2] was 0.13 nM and the Affinity decline ratio [3] was 1 fold.
